From publication PMC4235346

Tests used:
Experiment in all cases: fluorescence anisotropy
Details in all cases: 10 nM labelled DNA, 10 mM HEPES pH 7.0, 60 mM NaCl, 240 mM KCl, 25 C, anaerobic, 5 mM EDTA for apo or 1.2x (InrS) / 2.2x (ZiaR) metal …
[1] = tested on: InrS (Synechocystis PCC 6803)
[2] = tested on: InrS E95A (Synechocystis PCC 6803)
[3] = tested on: InrS E98A (Synechocystis PCC 6803)
[4] = tested on: ZiaR (Synechocystis PCC 6803)

Row | Substance | Kd ([1]; Cu(I), 1.2 molar excess) | Kd ([1]; Cu(II), 1.2 molar excess) | Kd ([1]; Ni(II), 1.2 molar excess) | Kd ([1]; Zn(II), 1.2 molar excess) | Kd ([1]; apo, 5 mM EDTA) | Kd ([2]; Ni(II), 1.2 molar excess) | Kd ([2]; apo, 5 mM EDTA) | Kd ([3]; Ni(II), 1.2 molar excess) | Kd ([3]; apo, 5 mM EDTA) | Kd ([4]; Zn(II), 2.2 molar excess, K1 (printed as >>)) | Kd ([4]; Zn(II), 2.2 molar excess, K2 (printed as >>)) | Kd ([4]; apo, 5 mM EDTA, K1 (first dimer)) | Kd ([4]; apo, 5 mM EDTA, K2 (second dimer))
1 | TCATCAATATCCCCCCTGGGGGCATAGAATAGA (double strand) [nrsDProFA (nrsD operator-promoter)] | 3100 nM | 3600 nM | 2300 nM | 980 nM | 9.4 nM | 1400 nM | 22 nM | 1300 nM | 21 nM |  |  |  | 
2 | zia operator-promoter (zia o/p) |  |  |  |  |  |  |  |  |  | > 10000 nM | > 10000 nM | 22 nM | 530 nM
